For test [1], the target named is HLA-A*01:01. Briefly: IEDB peptide-MHC binding, purified MHC/direct/fluorescence; filed as Kd, often an IC50 or EC50 that approximates it; ≥ and ≤ were set here for values at or beyond the usual limits of such assays.
The target of test [2] is HLA-A*02:01. Described as above.
Test [3] deals with HLA-A*03:01. The test is described as above.
For test [4], the target named is HLA-A*11:01. The test is described as above.
In test [5] the target is HLA-A*31:01. The description is as above.
Test [6] deals with HLA-A*68:02. The description is as above. To be noted: source organism: Listeria monocytogenes.
The target in test [7] is HLA-B*07:02. The description is as above.
Another test deals with HLA-B*08:03. The description is as above. To be noted: source organism: Listeria monocytogenes serotype 4b str. H7858.
The target of a further test is HLA-B*15:01. The description is as above.
The target of test [8] is HLA-B*18:01. The description is as above.
The next test deals with HLA-B*27:05. The test is described as above.
A further test has as its target HLA-B*40:01. The test is described as above.
A further test addresses HLA-B*46:01. The description is as above.
Another test addresses HLA-B*48:01. The test is described as above. The note with it: source organism: Listeria monocytogenes.
The next test has as its target HLA-B*57:01. The description is as above. To be noted: source organism: Listeria monocytogenes.
Test [9] has as its target HLA-B*58:01. The description is as above.
A further test concerns the target HLA-B*15:17. Briefly: IEDB peptide-MHC binding, purified MHC/competitive/fluorescence; filed as Kd, often an IC50 or EC50 that approximates it; ≥ and ≤ were set here for values at or beyond the usual limits of such assays. To be noted: source organism: Listeria monocytogenes serotype 4b str. CLIP 80459.
The target in a further test is HLA-A*02:06. Kind of test: IEDB peptide-MHC binding, purified MHC/direct/fluorescence; filed as Kd, often an IC50 or EC50 that approximates it; ≥ and ≤ were set here for values at or beyond the usual limits of such assays. The note with it: source organism: Yersinia pestis CA88-4125.
A further test addresses HLA-A*02:11. Described as above. To be noted: source organism: Yersinia pestis CA88-4125.
The next test has as its target HLA-A*02:12. The test is described as above. The note with it: source organism: Yersinia pestis CA88-4125.
The target in a further test is HLA-A*02:16. Described as above. To be noted: source organism: Yersinia pestis CA88-4125.
A further test deals with HLA-A*02:19. The description is as above. To be noted: source organism: Yersinia pestis CA88-4125.
The target in test [10] is HLA-A*24:02. The description is as above. The note with it: source organism: Yersinia pestis.
In a further test the target is HLA-A*69:01. The description is as above. The note with it: source organism: Yersinia pestis.
The next test deals with HLA-B*44:02. The test is described as above. To be noted: source organism: Yersinia pestis.
For a further test, the target named is HLA-A*02:50. Kind of test: IEDB peptide-MHC binding, purified MHC/competitive/fluorescence; filed as Kd, often an IC50 or EC50 that approximates it; ≥ and ≤ were set here for values at or beyond the usual limits of such assays. The note with it: source organism: Yersinia pestis Nepal516.
In test [11] the target is HLA-A*01:01. Kind of test: IEDB peptide-MHC binding, purified MHC/competitive/fluorescence; ≥ and ≤ were set here for values at or beyond the usual limits of such assays. The note with it: source organism: Homo sapiens.
Test [12] deals with HLA-A*02:01. The test is described as above. The note with it: source organism: Homo sapiens.
The target of test [13] is HLA-A*03:01. Described as above. To be noted: source organism: Homo sapiens.
The target in test [14] is HLA-A*11:01. The test is described as above. The note with it: source organism: Homo sapiens.
For test [15], the target named is HLA-A*24:02. Described as above. To be noted: source organism: Homo sapiens.
For another test, the target named is HLA-A*25:01. The description is as above. The note with it: source organism: Homo sapiens.
Another test addresses HLA-A*29:02. The description is as above. The note with it: source organism: Homo sapiens.
For test [16], the target named is HLA-A*31:01. The description is as above. The note with it: source organism: Homo sapiens.
Test [17] deals with HLA-A*68:02. Described as above. The note with it: source organism: Homo sapiens.
The target in test [18] is HLA-B*07:02. The test is described as above. The note with it: source organism: Homo sapiens.
The next test deals with HLA-B*08:01. The description is as above. The note with it: source organism: Homo sapiens.
In a further test the target is HLA-B*14:02. The test is described as above. To be noted: source organism: Homo sapiens.
Test [19] has as its target HLA-B*18:01. Described as above. The note with it: source organism: Homo sapiens.
For another test, the target named is HLA-B*35:01. The test is described as above. To be noted: source organism: Homo sapiens.
The next test addresses HLA-B*37:01. The test is described as above. To be noted: source organism: Homo sapiens.
Another test has as its target HLA-B*40:02. The test is described as above. To be noted: source organism: Homo sapiens.
The target of a further test is HLA-B*44:03. The description is as above. To be noted: source organism: Homo sapiens.
The target of the next test is HLA-B*51:01. The test is described as above. The note with it: source organism: Homo sapiens.
A further test has as its target HLA-B*53:01. Described as above. To be noted: source organism: Homo sapiens.
Test [20] concerns the target HLA-B*58:01. Described as above. The note with it: source organism: Homo sapiens.
The mark [21] stands for this setting: source organism: Listeria monocytogenes.
[22] abbreviates: source organism: Yersinia pestis.

Where only a bound is given, the exact number is not on record here.

The term Kd denotes the concentration at which binding is half-saturated. In general, IC50 refers to the point on the concentration scale where inhibition reaches its midpoint. Read a high IC50 as a need for much substance.

Take EIEIEKNKK: the Kd with HLA-A*01:01 [1] (setting [21]), with HLA-A*02:01 [2] (setting [21]), with HLA-A*03:01 [3] (setting [21]), with HLA-A*11:01 [4] (setting [21]), in the test with HLA-A*31:01 [5] (setting [21]) and with HLA-A*68:02 [6] was no less than 20 µM each time. Further, the Kd in the test with HLA-B*07:02 [7] (setting [21]), with HLA-B*08:03, in the test with HLA-B*15:01 (setting [21]), with HLA-B*18:01 [8] (setting [21]), with HLA-B*27:05 (setting [21]) and in the test with HLA-B*40:01 (setting [21]) was no less than 20 µM in each case. In addition, the Kd with HLA-B*46:01 (setting [21]), in the test with HLA-B*48:01, with HLA-B*57:01, with HLA-B*58:01 [9] (setting [21]) and with HLA-B*15:17 was no less than 20 µM each time.

Regarding AMQDPNPEV, the Kd in the test with HLA-A*01:01 [1] (setting [22]) is no less than 20 µM; with HLA-A*02:01 [2] (setting [22]) it was 0.189 µM; with HLA-A*02:06, 0.04 µM; in the test with HLA-A*02:11, 0.005 µM; in the test with HLA-A*02:12 it was 0.006 µM; with HLA-A*02:16, no more than 0.001 µM. Further, the Kd with HLA-A*02:19 is 0.042 µM; with HLA-A*03:01 [3] (setting [22]), no less than 20 µM; with HLA-A*11:01 [4] (setting [22]), no less than 20 µM; with HLA-A*24:02 [10], no less than 20 µM; in the test with HLA-A*31:01 [5] (setting [22]), no less than 20 µM; with HLA-A*69:01 it was 5.29 µM. The dissociation constant Kd in the test with HLA-B*07:02 [7] (setting [22]) was no less than 20 µM; with HLA-B*15:01 (setting [22]) it was 0.319 µM; in the test with HLA-B*18:01 [8] (setting [22]), no less than 20 µM; with HLA-B*27:05 (setting [22]) it was no less than 20 µM; with HLA-B*40:01 (setting [22]), no less than 20 µM; in the test with HLA-B*44:02 it was no less than 20 µM. The figures for the Kd in the test with HLA-B*46:01 (setting [22]), in the test with HLA-B*58:01 [9] (setting [22]) and with HLA-A*02:50 were no less than 20 µM, no less than 20 µM and 0.0011 µM, respectively.

Consider MVRVLTVIKEY, for which the IC50 in the test with HLA-A*01:01 [11] was no less than 20 µM; in the test with HLA-A*02:01 [12], no less than 20 µM; with HLA-A*03:01 [13] it was no less than 20 µM; with HLA-A*11:01 [14], 0.833 µM; with HLA-A*24:02 [15], no less than 20 µM; in the test with HLA-A*25:01 it was 1.29 µM. Besides, the concentration for half-maximal inhibition (IC50) with HLA-A*29:02 was 0.0053 µM; in the test with HLA-A*31:01 [16], no less than 20 µM; with HLA-A*68:02 [17], no less than 20 µM; with HLA-B*07:02 [18], no less than 20 µM; with HLA-B*08:01 it was no less than 20 µM; in the test with HLA-B*14:02, no less than 20 µM. Moreover, the half-inhibitory concentration (IC50) was 2.77 µM with HLA-B*18:01 [19]; 0.0205 µM with HLA-B*35:01; no less than 20 µM in the test with HLA-B*37:01; no less than 20 µM in the test with HLA-B*40:02; no less than 20 µM in the test with HLA-B*44:03; no less than 20 µM with HLA-B*51:01. Besides, the IC50 with HLA-B*53:01 and in the test with HLA-B*58:01 [20] was no less than 20 µM each time.
